# Reference: publication PMC2323369, “Identification of a GTP-bound Rho specific scFv molecular sensor by phage display selection” (BMC Biotechnology, 2008)
# Key:
# [1] = biological target: T1, GST-RhoC (wild type) (Homo sapiens (assumed), UniProt P08134); assay: ELISA; GST proteins loaded with 200 μM GTPγS for 30 min and purified on glutathione ELISA plates; 10^10 clones of C1 phages in each well; anti-M13-HRP, TMB; details: one partner purified
# T1 construct: Loaded with GDP or GTPγS as told in each assay; source: E. coli BL21, purified on glutathione-coated plates; not shown: GST, N-terminal, kept
# [2] = biological target: T2, GST-Rac1 (Homo sapiens (assumed), UniProt P63000); assay: as above; details: one partner purified
# [3] = biological target: T3, GST-Cdc42 (Homo sapiens (assumed), UniProt P60953); assay: as above; details: one partner purified
# T3 construct: Cdc42, from a pGEX plasmid provided by Dr. A. Blangy; Loaded with GDP, GTP or GTPγS as told in each assay; also called GTP-Cdc42; source: E. coli BL21, purified on glutathione-coated plates
# [4] = biological target: T4, GST-RhoB (wild type) (Homo sapiens (assumed), UniProt P62745); assay: as above; details: one partner purified
# T4 construct: Loaded with GDP, GTP or GTPγS as told in each assay; The immunoprecipitation speaks only of recombinant RhoB without naming the GST; also called recombinant RhoB; source: E. coli BL21, purified on glutathione-coated plates; crude bacterial lysate (immunoprecipitation); not shown: GST, N-terminal, kept
# [5] = biological target: T2, GST-Rac1; assay: ELISA; competition ELISA on a RhoAQ63L coated plate: scFvC1-N1N2 (0.4 μM) competed by increasing concentrations of GST-RBD, GDP bound RhoA, GTP bound Cdc42, GTP bound Rac1
# [6] = biological target: T3, GST-Cdc42; assay: as above
# [7] = biological target: T4, GST-RhoB (wild type); assay: pull-down; scFv C1-N1N2 from crude bacterial extract fixed on Ni-NTA beads; crude bacterial lysate with recombinant RhoA or RhoB loaded with 0.2 mM GTPγS (PBS, 10 mM EDTA, 30 min, 30°C); 45 min at 4°C; blot with anti-RhoA or anti-RhoB; called immunoprecipitation; details: one partner purified
# [8] = biological target: T5, GST-RhoAQ63L (UniProt P61586 1-193, Q63L); assay: ELISA + SPR; competition ELISA on a RhoAQ63L coated plate (scFvC1-N1N2 0.4 μM competed by increasing GST-RBD); KD of GST-RBD also determined by SPR on GST-RhoAQ63L
# T5 construct: GTP-locked mutant; source: E. coli BL21, purified on glutathione-coated plates; not shown: GST, N-terminal, kept
# T5 sequence (P61586 whole entry Q63L): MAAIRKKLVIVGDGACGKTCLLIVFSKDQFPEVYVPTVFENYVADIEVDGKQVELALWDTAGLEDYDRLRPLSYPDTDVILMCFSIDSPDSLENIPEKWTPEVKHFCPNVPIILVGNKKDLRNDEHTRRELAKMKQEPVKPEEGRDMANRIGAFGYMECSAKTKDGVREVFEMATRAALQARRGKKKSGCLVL
# T3 sequence (P60953 whole entry): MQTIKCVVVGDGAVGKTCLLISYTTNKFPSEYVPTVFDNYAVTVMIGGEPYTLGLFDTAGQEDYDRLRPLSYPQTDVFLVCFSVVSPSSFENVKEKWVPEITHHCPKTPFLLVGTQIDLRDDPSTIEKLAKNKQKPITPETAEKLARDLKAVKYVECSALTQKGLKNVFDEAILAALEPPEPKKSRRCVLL
# T4 sequence (P62745 whole entry): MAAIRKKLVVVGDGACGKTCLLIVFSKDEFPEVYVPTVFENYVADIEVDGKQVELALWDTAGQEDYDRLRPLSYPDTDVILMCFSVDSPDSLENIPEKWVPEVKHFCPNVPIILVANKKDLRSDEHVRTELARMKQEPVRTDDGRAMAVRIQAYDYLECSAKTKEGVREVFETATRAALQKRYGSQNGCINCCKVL
# T1 sequence (P08134 whole entry): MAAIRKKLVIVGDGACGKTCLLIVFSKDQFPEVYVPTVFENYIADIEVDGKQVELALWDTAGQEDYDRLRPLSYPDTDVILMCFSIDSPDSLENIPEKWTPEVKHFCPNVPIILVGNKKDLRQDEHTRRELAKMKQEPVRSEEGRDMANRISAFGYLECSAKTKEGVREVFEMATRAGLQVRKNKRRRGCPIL
binder,measurement,setting,value
"C1 phage (scFv C1-pIII fusion protein displayed on phage) (scFv, V domains shown, VH of scFv C1 (human synthetic, Griffin.1 library); linker between VH and VL of the Griffin.1 library vector pHEN2; VL of scFv C1 (human synthetic, Griffin.1 library); source: monoclonal phage from E. coli supernatant (Griffin.1 library, phagemid pHEN2); not shown: 6xHis, C-terminal, kept; myc, C-terminal, kept) VH: not shown VL: SSELTQDPAVSVALGQTVRITCQGDSLRSYYASWYQQKPGQAPVLVIYGKNNRPSGIPDRFSGSSSGNTASLTITGAQAEDEADYYCNSRDSSGNHAYVFGGGTKLTVL",binding result,[1],binds
same,binding result,[2],no binding (tested: 10^10 clones of C1 phages)
same,binding result,[3],no binding (tested: 10^10 clones of C1 phages)
same,binding result,[4],binds
"scFv C1-N1N2 (scFv, V domains shown, VH of scFv C1, as in m1; linker between VH and VL of the vector pHEN2, as in m1; VL of scFv C1, as in m1; N-terminal portions N1 and N2 of the phage coat protein pIII of M13 (vector pHEN2); the C-terminal portion of pIII removed; The amber codon between the tags and gene III was mutated so that translation runs into pIII; an EcoRI site was put in after N2; Predicted mass 60 kDa; Smaller proteins …) VH: not shown VL: SSELTQDPAVSVALGQTVRITCQGDSLRSYYASWYQQKPGQAPVLVIYGKNNRPSGIPDRFSGSSSGNTASLTITGAQAEDEADYYCNSRDSSGNHAYVFGGGTKLTVL",Kd,[5],> 50 µM
same,binding result,[5],no binding (tested: > 50 μM)
same,Kd,[6],> 50 µM
same,binding result,[6],no binding (tested: > 50 μM)
same,binding result,[7],binds
GST-RBD (Rho binding domain of Rhotekin fused to GST) (domain or fragment) ILEDLNMLYIRQMALSLEDTELQRKLDHEIRMRDGACKLLAACSQREQALEATKSLLVCNSRILSYMGELQRRKEAQVLEKTG,Kd,[8],0.2 ± 0.2 µM
